Tests used:
[1] = Water activity (Aqua lab water activity meter); format: physicochemical; conditions: REV, 10% SMP, 10 Torr (200 W)
Experimental: (§1) The puffed foam material was removed from the drier and packed in polyethylene bags. The final moisture content and water activity of the dried foams were measured after 24 hours of drying (allow the sample to equilibrate) using air oven method and Aqua lab water activity meter (model series 3, Decagon Device Inc., Washington, USA).
as §1, with “structure” for “material”
The water activity of the samples before microwave vacuum drying, immediately after drying and during storage was measured (Aqualab R Model series 3, Decagon Devices, Inc., Washington, USA).

[2] = cited from earlier work
[3] = test system: Micrococcus luteus cell wall suspension; assay: Lysozyme activity, turbidity assay; format: biochemical; conditions: lysozyme-chitosan 1:3 pastes; for lysozyme enzymatic activity after drying: t-REV 300 Watts, 30 Torr, 10 min
Experimental: Lysozyme activity was determined by the turbidity assay method using freeze-dried Micrococcus luteus cell wall suspension.

Bifidobacterium longum
aw [1]: 0.36 ± 0.01

lysozyme: Lysozyme extracted from chicken egg-white (Neova Technologies Inc.)
retention during pelleting ([2]; encapsulated with hydrogenated vegetable oil and calcium stearate): up to 75%
loss after the feed pelleting process ([2]; unprotected lysozyme, pelleting at 195° F.): More than 50%
increase in lysozyme activity after t-REV ([3]; before versus after t-REV): about 10%
lysozyme enzymatic activity after drying [3]: no enzymatic activity loss
lysozyme enzymatic activity after drying ([3]; listed as Lysozyme): retained its activity

From US8877469B2, “Method of drying biological material” (Enwave Corporation, priority 2004, dated 2014)
